Test results as given in the nanobody polyreactivity screen of Harvey et al. (2022).

test: yeast display, Sf9 membrane polyspecificity reagent, FACS + sequencing; frameworks hold sequencing errors
Procedure, shortened: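 Polyreactivity labels are assigned by the sorting gate from which each nanobody was recovered. The gates were low and high (top ~1%), set on anti-HA fluorescence for expression and streptavidin fluorescence for reagent binding. Before sorting, galactose-induced (36–48 hours) yeast display cells were stained for 1 hour at 4 °C with 10% biotinylated, detergent-solubilized Sf9 membrane reagent.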

Sequence	polyreactivity (PSR sort gate)
QVQLVESGGGLVQAGGSLRLSCAASVFILRYYAMGWYRQAPGKERELVAAISYTAGSTYYADSVKGRFTISRDNAKNTVYLQMNSLKPKDTAVYYCAASYTPWRYVPRDYWGQGTQVTVSS	high polyreactivity
QVQLVESGGGLVQAGGRLRLSCAASGFIYRPYLMGWYRQATGKEMEFVAAISGRGGSTYYADSVKGRFTISRDNAKKTVYLQMNSLKPEDTAVYYCNAVYIYTGVGYNYWGQGTQVTVSS	high polyreactivity
QVQLVESGGGLVQAGGSLRLSCAASGRIFRVYAMGWYRQAPGKERELVAAINRSGGTTYYADSVKGRFTISRDNAKHTVYLQMNSLKPEDTAVYYCNAPVRRDVAYGYWGQGTQVTVSS	high polyreactivity
QVQLVESGGGLVQAGGSLRLSCAASGRIFWSYAMGWYRPAPGKERELVAAIRSGGTTDYADSVKGRFTISRDNAKNTVYLQMNSLKPEDTAVYYCNREYRGAINYIYYYWGQGTQVTVSS	low polyreactivity
QVQLVESGGGIVQAGGSLRLSIAASGNILNGNVMGWSRPEPGKERELVAAITSGGDTYYADSVKGRFTISRDNAKNTVYFQMNSLKPEDTAVYYCAADRPGQPKYEYWGQGTQVTVSS	low polyreactivity
QVQLVESGGGLVQAGGSLRLSCAASGSIFRYNAMGWYRKAPGKERELVAAIRSGGSTYYADSVKGRFTISRDNAKNTVYLQMNSLKPEDTAVYYCNARRYVGYDYWGQGTQVTVSS	high polyreactivity
QVQLHESGGVLVQAGGSLRLSCAASGTISVHYNMCWYRQEPRQEREFVAGNSTGATTNYADSVKGRFTISRDNENNTVYLQMNSLKPEDTAVYYCAAHIYGQDHFYYWGQGTQVTVSS	low polyreactivity
QVQLVESGGGLVQAGGSLRLSCAASGFTFYNNAMGWYRQAPGKERELVAVITSNGGRTYYADSVKGRFTISRDNAKITVYLQMNSLKPEDTAVYYCAADYWGLGTQVTVSS	low polyreactivity
QVQLVESGGGLVQAGGSLRLICAASGITFYAYPMGWYRQAPGKERELVAAITSSGSSTYYADSVKGRFTISLDNAKNTVYFQMNSLKPEDTAVFYCAATRGTKFYWGQGTQVTVSS	high polyreactivity
QVQLVESGGGLVQAGGSLRLSCSASGITFWKYAMGWYRQAPGKERELVASISGRGGSTYYADSVKGRFTISRYKANNTVYLQMNSLKPEDTAVYYCAKYPGISGYNYWGQGTQVTVSS	high polyreactivity
QVQLVESGGGLVQAGGSLRLSCAASGRTFSYNARGWYRPAPGKEMELVASISSSGTSTSYADSVKGRFTISRDYAKNTVYLQMNSLKPEDTAVYYCATVRYPYWYSGPQNSRGYWGQGSQVTVSS	high polyreactivity
QVQLVESGGGLFQAGGSLRLSCAASGRTFKPNTMGWYRQAPGKERELVAAITWRGGSTYYADSVKGRFTISRDNAKNTVYLQMNSLKPEDTAVYYCASARVRTGTGMDYWGQVTQVTVSS	low polyreactivity
QVQLVESGGGLVQAGGSLRLSCAASGRTFAIYAMGWYRQAPGKERELVATIRGGSTYYADSVKGRFTISRDNAKNTVYLQMNSLKPEDTAVYYCAAGWYRYYGGFGYWGQGTQVTVSS	high polyreactivity
QVQLVESGGGLVQAGGSLRLSCAASGSTFWKYAMGWYRQAPGKERELVASIRSGGSTYYADSVKGRFTISRDNAKNNVYLQMNSLKPEDTAVYYCNAMSRTVSHEADDYWGQGTQVTVSS	high polyreactivity
QVQLVESGGGLVQAGGSLRLRCAASGSTCWFSAMGWSRQATGTERELVATITIGARTYADSVKGRCTISRDNPKTTVYVQMNSLKPEETAVYYCAARRRRLEYDYGRNDYWGQGTQVTVTS	low polyreactivity
QVQLVESGGGLVQAGGSLRLSCAASGRTFWYYTMGWYRQAPGKERELVAGITGTGGSTYYADSVKGRFTISRDNAKNTVYLQMNSLKPEDTAVYYCNALRRSQRYWDPYGYDYWGQGTQVTVSS	high polyreactivity
QVQLVESGGGIVQAGGSLRLSCAASGRTFYPNGMGWYRQERGKERQLVAAITSGGRTNYADSVKGRFTISRDNAKNTVYLQMHSRKPEDTAVYYSNAVKRRSTSSGMDYWGQGTQVTVSS	high polyreactivity
QVQLVESGGGLVQAGGSLRLSCAASGSIFIYYAMGWYRQAPGKERELVAAINTGGTTYYADSVKGRFTISRDNAKNTVYLQMNSLKPEDTAVYYCAKYIAYYGYVPSPWDHPGDDYWGQGTQVTVSS	low polyreactivity
QVQLVESGGGLVQAGGSLRLSCAAAGRTFYSYAMGWYRQAPGKEREFVAAINWSGTSTYADSVKGRFTISRDNAKNTVYLQMTSLKPEDTAVYYCAADLPAEYYHWGQGTQVTVSS	high polyreactivity
QVQLVESGGGIVQAGGSLRLSCAASGSTFRGYAMGWYRQAPGKERELVAAITYISDSTYYADSVKGRFTISRDNAKNTVYLQMNCLKPVDTAVYYCNAYYDGDWRYTSQETGDHWGQGTQVTVSS	low polyreactivity
QVQLVESGGGLVQAGGSLRLSCAASGGTFHYNAMGWSRQAPGKERELVAAITESGGRTYYADSVKGRFTISRDNAKNTVYLQMNSLKPEDTAVYYCNADQDYDAAYRSDYWGQGTQVTVSS	low polyreactivity
QVQLVESGGGLVQAGGSLRLSCAASGSTFPYYGMGWYRQAPGKERDLVAVISRRGTGTYYADSVKGRFTISRDNAKNTVYLQMNSLKPEDTAVYYCNTDTHGPGPTFDHYDYWGQGTQVTVSS	low polyreactivity

Sequence	polyreactivity (PSR sort gate)
QVQLVESGGGLVQAGGSLRLSCAASGRIFSRYAMGWYRQAPGKERELVAAITQSGTSTYYADSVKGRFTISRDNAKNTVYLQMNSLKPEDTAVYYCNAYRQYRYDYWGQGTQVTVSS	low polyreactivity
QVQLVESGGGLVQAGGSLRLSCAASGIIFGWYAMGWYRKAPGKERELVAAISSGGRTNYADSVKGRFTISRDNAKNTVYLQMNSLKPEDTAVYYCAAAYIRGSRRYDYWGQGTQVTVSS	high polyreactivity
QVQLVESGGGLVQAGGSLRLSCAASGYTFYIYAMGWYRQAPGKERELVATISSSGGGTYYADSVKGRFTISRDNAKNTVYLQMNSLNPEDTAVYYCNADGWYWQAQGYDYWGQGTQVTVSS	low polyreactivity
QVQLVESGGGLVQAGGSLRLSCAASGRTFSNAMGWYRQAPGKERELVADISSGGSTNYADSVKGRFTISRDNAKNTVYLQMNSLKPEDTAVYYCAAVSGSLYGYSDDYWGQGTQVTVSS	low polyreactivity
QVQLVESGGGLVQAGGSLRLSCAASGFIFGYYAMGWYRQAPGKERELVAAISSRGGSTYYADSVKGRFTISRDNAKNTVYLQMNSLKPEDTAVYYCAVRRVSFRHKFGQYDYWGQGTQVTVSA	high polyreactivity
QVQLVESGGGLVQAGGSLRLSCAASGLIFRYYCMGWSRQAPRKERELVATINRSGGRTYYADSVKGRFTISRDNAKNTDSLQMNSQKRDETAVYYCAALPEVYWIYGPQMDYWGQGTQVNVSS	high polyreactivity
QVQLGESGGGLVQAGGSLRLSCAASGSIFGGNAMGWYRQAPGKERELVAAISTSGSTTYYADSVKGRFTISRDNAKNTVYLQMNSLKPEDTAVYYCARRGGVRGYYGGRRSKMDYWGQGTQVTVSS	low polyreactivity
QVQLVESGGGLVQAGGSLRLSCAASGRTLQGYAMGWYRQAPGKERELVAAISRGGGSTYADSVKGRFTISRDNAKNTVYLQMNSLKPEDTAVYYCNKKSYYRYYWGQGTQVTVSS	high polyreactivity
QVQLVESGGGLVQAGGSLRLSCAASGRTFDYYAMGWYRQAPGKERELVAAISSSGGSTYYADSVKGRFTISRDNAKNTVYLQMNSLKPEDTEVYYCNAYAYRFNHIHHIYTTDGEYWGQGTQVTVSS	high polyreactivity
QVQLVESGGGLVQAGGSLRLSCAASGYIFSTYDMGWYRQAPGKERELVATISSSGGSTYYADSVKGRFTISRDIAKNTVYLQMNSLKPEDTAVYYCAADLYLYQYRYEYDYWGQGTQVTVSS	high polyreactivity
QVQLVESGGGLVQAGGSLRLSCAASGSIFKLNAMGWYRQAPGKERELVAAISRGGRKYYADSVKGRFTISRDNAKNTVYLQMNSLKPEDTAVYYCAADASSQIWYYPRDDYWGQGTQVTVSS	low polyreactivity
QVQLVESGGGLVQAGGSLRLSCAASGSIFFSNAMGWYRQAPGKERELVAGIRSGGITNYADSVKGRFTISRDNAKNTVYLQMNSLKPEDSAVYYCAKLKDHGRYAYAFDYWGQGTQVTVSS	low polyreactivity
QVQLVESGGGLVQAGGSLRLSCAASGRTFGVYAMGWYRQATGKERELVAGIRWRGGSTYYADSVKGRFTISRDNAKNTVYLQMNSLKPEDTAVYYCAAKVYYLYDSIWAWVIIRYDYWGQGTQVTVSS	low polyreactivity
QVQLVESGGGLVQAGGSLRLSCAASGIIFGKYDMGWYRQAPGKEREMVAAITSGTSTNYADSVKGRFTISRDNAKNTVYLQMNSLKPEDTAVYSCAADVYLYYPYFGHRRYNYWGQGTQVTVSS	high polyreactivity
QVQLVESGGGLVQAGGSLRLSCAASGRTFGYYAMGWYRQAPGKERELVAAISSAGSSTYYADSVKGRFTISRDNAKNTVYLQMNSLKPEDTAVYYCAASSRSFIRVYYWGQGTQVTVSS	high polyreactivity
QVQLVESGGGLVQAGGSLRLSCAASGRTSPYYTMGWYRQAPGKERELVAASGSRTDYADSVKGRFTISRDNAKNTVYLQMNSLKPEDTAVYYCNAYRYRQSSSDKYGYWGQGTQVTVSS	low polyreactivity
QFQLVESGGGLVQEGGSLRLSCAASGFTFYYYTMGWYRQAPGKERELVAAITWRGGSTNYADSVKGRFTISRDNAKNTVYLQMNSLKPEDTAVYYCAAVTYWFWPGMDYWGQGTQVTVSS	low polyreactivity
QVQLVESGGGLVQAGGSLRLSCAASGRTFVPYAMGWYRQAPGKEREMVAAISQSGGRTYYTDSVKGRFTISRDNAKNTVYLLMNSLKPEDTAVYYCAARGPYRPPHGDAYYTYVYWGQGTQVTVSS	high polyreactivity
QVQLVESGGGLVQAGGSLRLICAASGRIFVYNAKGSYSQAPGKDRELVATITSGGSTYYSDSVKGRFTISRDNAKNTVYFQMNSLKPEDTAVYYCAARRWYVHYFAYGYWGQGTQVTVSS	low polyreactivity
QVQLVESGGGLVQAGGSLRLSCAASGFTFSQYAMGWYRQAPGKERELVAAISRSGGSTYYADSVKGRFTISRDNAKNTVYLQMNSLKPEDTAVYYCAARGPVGYGWRYRPWHDYWGQGTQVTVSS	high polyreactivity
QVQLVESGGGLVQAGGSFRLSCAASGSIFVVYAMGWYRQAPGKERELVAAITSGGSTYYADSVKGRFTISRDNAKNTVYLQMNSLKPEDTAVYYCATTYRDGVYELTTFDYWGQGTQVTVSS	low polyreactivity
